Results on 3 substances are retold here after patent publication US20240299459A1.

In experiment [1] the target is integrin β1 on rat synovium-derived mesenchymal stem cells (rat) (UniProt P49134). Briefly: flow cytometry staining of rat synovium-derived MSC, TrypLE detachment 120 minutes. Background: Flow cytometry measures light scatter and fluorescence of single cells or particles in a stream.
For experiment [2] the target is unchanged. Briefly: flow cytometry staining of rat synovium-derived MSC, TrypLE detachment 30 minutes.
For experiment [3] the target is unchanged. Briefly: flow cytometry staining of rat synovium-derived MSC cultured 28 days, TrypLE detachment 120 minutes.
For experiment [4] the target is unchanged. The experiment is described as follows: flow cytometry staining of rat synovium-derived MSC cultured 8 days, TrypLE detachment 120 minutes.
The target is the same in experiment [5]. The experiment is described as follows: flow cytometry staining of rat synovium-derived MSC, TrypLE detachment 5 minutes.
The target is the same in experiment [6]. The experiment is described as follows: flow cytometry staining of rat synovium-derived MSC cultured 21 days, TrypLE detachment 120 minutes.
Experiment [7] shares this target. Briefly: flow cytometry staining of rat synovium-derived MSC, TrypLE detachment 60 minutes.
The target in experiment [8] is platelet-derived growth factor receptor β on rat synovium-derived mesenchymal stem cells (rat) (UniProt Q05030). Briefly: flow cytometry staining of rat synovium-derived MSC with FITC anti-goat secondary, TrypLE detachment 120 minutes.
Experiment [9] concerns the target platelet-derived growth factor receptor β on human synovium-derived stem cells (human) (UniProt P09619). The experiment is described as follows: flow cytometry staining of human synovium-derived stem cells, second lot listed (ST1420).
Experiment [10] has the same target. The experiment is described as follows: flow cytometry staining of human synovium-derived stem cells, third lot listed (ST1434).
Experiment [11] has the same target. The experiment is described as follows: flow cytometry staining of human synovium-derived stem cells, fourth lot listed (ST1462).
For experiment [12] the target is unchanged. Briefly: flow cytometry staining of human synovium-derived stem cells, first lot listed (ST1414).
In experiment [13] the target is platelet-derived growth factor receptor β on rat synovium-derived mesenchymal stem cells (rat) (UniProt Q05030). The experiment is described as follows: cell-based or functional assay.
The target is the same in experiment [14]. The experiment is described as follows: flow cytometry staining of rat synovium-derived MSC with FITC anti-goat secondary, TrypLE detachment 30 minutes.
The target is the same in experiment [15]. The experiment is described as follows: flow cytometry staining of rat synovium-derived MSC with FITC anti-goat secondary, TrypLE detachment 5 minutes.
The target is the same in experiment [16]. Briefly: flow cytometry staining of rat synovium-derived MSC with FITC anti-goat secondary, TrypLE detachment 60 minutes.
The target of experiment [17] is integrin β1 on human synovium-derived stem cells (human) (UniProt P05556). The experiment is described as follows: flow cytometry staining of human synovium-derived stem cells, second lot listed (ST1420).
Experiment [18] shares this target. Briefly: flow cytometry staining of human synovium-derived stem cells, third lot listed (ST1434).
The target is the same in experiment [19]. Briefly: flow cytometry staining of human synovium-derived stem cells, fourth lot listed (ST1462).
Experiment [20] shares this target. The experiment is described as follows: flow cytometry staining of human synovium-derived stem cells, first lot listed (ST1414).

UniProt P05556, sequence (P05556 21-798): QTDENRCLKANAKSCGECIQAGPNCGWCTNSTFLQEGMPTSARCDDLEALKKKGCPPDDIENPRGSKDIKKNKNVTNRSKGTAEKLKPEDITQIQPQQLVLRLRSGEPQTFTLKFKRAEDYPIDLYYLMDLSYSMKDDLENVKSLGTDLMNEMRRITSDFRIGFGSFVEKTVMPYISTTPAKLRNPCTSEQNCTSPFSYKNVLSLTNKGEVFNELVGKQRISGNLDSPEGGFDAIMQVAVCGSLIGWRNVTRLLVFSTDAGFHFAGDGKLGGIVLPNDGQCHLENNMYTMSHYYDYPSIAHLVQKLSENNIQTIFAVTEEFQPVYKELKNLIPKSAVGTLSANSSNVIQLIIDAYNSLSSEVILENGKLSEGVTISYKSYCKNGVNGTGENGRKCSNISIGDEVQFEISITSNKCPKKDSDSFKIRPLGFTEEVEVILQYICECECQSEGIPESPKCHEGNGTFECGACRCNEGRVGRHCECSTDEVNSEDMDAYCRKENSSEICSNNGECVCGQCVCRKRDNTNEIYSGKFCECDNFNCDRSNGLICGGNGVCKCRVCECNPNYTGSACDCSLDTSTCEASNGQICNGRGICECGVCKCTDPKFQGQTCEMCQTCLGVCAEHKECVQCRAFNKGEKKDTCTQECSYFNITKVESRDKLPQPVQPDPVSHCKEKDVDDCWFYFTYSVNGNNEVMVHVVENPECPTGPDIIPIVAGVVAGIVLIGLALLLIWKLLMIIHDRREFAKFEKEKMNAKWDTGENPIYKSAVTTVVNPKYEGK
UniProt P49134, sequence (P49134 21-798): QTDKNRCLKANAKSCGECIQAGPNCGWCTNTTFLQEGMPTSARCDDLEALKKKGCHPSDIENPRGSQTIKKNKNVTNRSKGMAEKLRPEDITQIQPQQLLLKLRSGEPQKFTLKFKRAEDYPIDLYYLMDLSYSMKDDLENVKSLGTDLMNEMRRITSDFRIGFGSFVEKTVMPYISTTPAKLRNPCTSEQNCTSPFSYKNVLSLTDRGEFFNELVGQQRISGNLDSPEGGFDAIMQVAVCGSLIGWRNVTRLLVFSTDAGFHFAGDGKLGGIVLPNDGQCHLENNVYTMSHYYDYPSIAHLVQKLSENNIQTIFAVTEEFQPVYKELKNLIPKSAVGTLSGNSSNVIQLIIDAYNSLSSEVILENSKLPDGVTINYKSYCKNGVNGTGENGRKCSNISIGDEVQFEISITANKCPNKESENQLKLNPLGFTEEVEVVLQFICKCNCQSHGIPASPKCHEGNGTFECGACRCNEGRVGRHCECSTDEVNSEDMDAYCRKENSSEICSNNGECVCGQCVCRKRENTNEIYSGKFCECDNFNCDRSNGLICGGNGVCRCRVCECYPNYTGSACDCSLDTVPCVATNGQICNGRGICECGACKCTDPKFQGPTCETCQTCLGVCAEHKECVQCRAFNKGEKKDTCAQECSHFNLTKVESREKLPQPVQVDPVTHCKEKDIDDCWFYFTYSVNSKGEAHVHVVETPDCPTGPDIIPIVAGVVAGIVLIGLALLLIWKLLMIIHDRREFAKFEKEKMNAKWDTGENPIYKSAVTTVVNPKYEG
UniProt Q05030, sequence (Q05030 32-1097): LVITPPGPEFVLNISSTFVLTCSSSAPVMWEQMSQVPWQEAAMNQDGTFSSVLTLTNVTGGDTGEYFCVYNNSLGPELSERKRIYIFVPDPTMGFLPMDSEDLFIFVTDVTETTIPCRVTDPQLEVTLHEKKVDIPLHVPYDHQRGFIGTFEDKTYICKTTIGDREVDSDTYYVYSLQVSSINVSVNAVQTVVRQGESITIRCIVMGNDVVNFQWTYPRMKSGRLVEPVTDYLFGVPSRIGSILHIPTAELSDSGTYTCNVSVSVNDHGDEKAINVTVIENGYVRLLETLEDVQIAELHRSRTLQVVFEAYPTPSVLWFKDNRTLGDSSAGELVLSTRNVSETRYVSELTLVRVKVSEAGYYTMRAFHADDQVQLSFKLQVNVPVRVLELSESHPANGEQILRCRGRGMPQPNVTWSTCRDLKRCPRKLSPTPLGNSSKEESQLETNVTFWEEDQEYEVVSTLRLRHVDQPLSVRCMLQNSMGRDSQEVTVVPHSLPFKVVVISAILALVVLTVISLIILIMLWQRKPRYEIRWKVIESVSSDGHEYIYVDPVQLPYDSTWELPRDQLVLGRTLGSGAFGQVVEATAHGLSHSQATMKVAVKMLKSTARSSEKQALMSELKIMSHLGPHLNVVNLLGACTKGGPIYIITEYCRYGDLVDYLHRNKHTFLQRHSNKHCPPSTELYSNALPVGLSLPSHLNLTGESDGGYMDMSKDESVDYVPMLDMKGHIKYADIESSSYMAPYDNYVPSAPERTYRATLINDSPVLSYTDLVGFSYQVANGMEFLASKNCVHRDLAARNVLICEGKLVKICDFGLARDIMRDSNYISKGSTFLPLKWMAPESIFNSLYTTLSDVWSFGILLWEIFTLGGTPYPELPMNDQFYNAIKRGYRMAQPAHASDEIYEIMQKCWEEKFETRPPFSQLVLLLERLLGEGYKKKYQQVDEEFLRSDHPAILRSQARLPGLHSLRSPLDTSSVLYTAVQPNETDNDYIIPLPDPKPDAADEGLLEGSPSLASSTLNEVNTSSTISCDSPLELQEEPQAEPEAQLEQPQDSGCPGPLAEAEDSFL
UniProt P09619, sequence (P09619 33-1106): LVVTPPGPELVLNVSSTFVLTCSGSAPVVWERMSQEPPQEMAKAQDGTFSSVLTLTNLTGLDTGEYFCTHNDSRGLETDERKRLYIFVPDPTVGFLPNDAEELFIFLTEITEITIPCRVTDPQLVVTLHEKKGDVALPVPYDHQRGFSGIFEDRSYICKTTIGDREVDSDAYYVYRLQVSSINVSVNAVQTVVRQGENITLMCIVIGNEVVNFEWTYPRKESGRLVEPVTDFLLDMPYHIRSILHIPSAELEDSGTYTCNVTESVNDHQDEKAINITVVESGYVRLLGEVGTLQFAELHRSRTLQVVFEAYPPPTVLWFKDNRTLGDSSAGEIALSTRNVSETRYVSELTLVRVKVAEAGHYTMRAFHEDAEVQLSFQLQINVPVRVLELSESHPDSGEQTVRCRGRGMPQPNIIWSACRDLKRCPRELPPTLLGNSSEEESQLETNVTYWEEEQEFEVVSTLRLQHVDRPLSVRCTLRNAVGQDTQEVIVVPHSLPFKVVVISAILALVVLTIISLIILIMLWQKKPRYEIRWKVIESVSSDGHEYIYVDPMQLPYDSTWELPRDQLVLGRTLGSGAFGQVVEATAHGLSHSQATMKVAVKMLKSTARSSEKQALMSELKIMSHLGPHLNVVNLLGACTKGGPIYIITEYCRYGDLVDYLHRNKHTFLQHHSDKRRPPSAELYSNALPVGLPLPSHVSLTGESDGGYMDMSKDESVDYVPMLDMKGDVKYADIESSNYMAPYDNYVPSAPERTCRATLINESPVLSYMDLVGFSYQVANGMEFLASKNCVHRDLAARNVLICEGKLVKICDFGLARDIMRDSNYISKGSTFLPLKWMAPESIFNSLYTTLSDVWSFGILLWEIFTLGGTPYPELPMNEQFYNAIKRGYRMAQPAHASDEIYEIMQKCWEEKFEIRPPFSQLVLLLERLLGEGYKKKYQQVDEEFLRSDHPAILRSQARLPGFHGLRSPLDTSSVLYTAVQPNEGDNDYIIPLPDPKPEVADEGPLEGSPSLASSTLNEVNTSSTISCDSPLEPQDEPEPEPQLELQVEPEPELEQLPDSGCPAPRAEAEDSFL

Regarding “PE anti-mouse/rat integrin β1 Antibody (Biolegend Cat. No. 102207)”, the Expression rate (percent positive cells) was found to be 97.8% in experiment [1]; 99.7% in [2]; 56.1% in experiment [3]; 97.8% in [4]; 98.7% in experiment [5]; 62.1% in [6]. In addition, the Expression rate (percent positive cells) in experiment [7] came to 96.1%.

Take “Anti-PDGF Receptor β Human Goat-Poly (R & D Systems Cat. No. AF385) (antibody)”: the Expression rate (percent positive cells) in experiment [8] came out at 32.8%; in experiment [14], 76.9%; in experiment [15] it was 91.6%; in experiment [16] it was 63.3%. Besides, the surface antigen positive rate in experiment [9] was 90.7%; in [10] it was 95.2%; in experiment [11] it was 85.9%; in experiment [12] it was 92.2%. The ATP concentration (cell proliferation with rat PDGF-BB 4 ng/mL, Cell Titer Glo, 6th day of culture), 10 µg/mL PDGFRb-rSMSC in [13] amounted to 0.62 µmol/L. In addition, in experiment [13], the ATP concentration (cell proliferation with rat PDGF-BB 4 ng/mL, Cell Titer Glo, 6th day of culture), 20 µg/mL PDGFRb-rSMSC came to 0.65 µmol/L. The ATP concentration (cell proliferation with rat PDGF-BB 4 ng/mL, Cell Titer Glo, 6th day of culture), 40 µg/mL PDGFRb-rSMSC in experiment [13] was 0.24 µmol/L. The substance further yielded an ATP concentration (cell proliferation, Cell Titer Glo, 6th day of culture), 40 µg/mL PDGFRb-rSMSC in [13] of 3.78 µmol/L. The substance also returned an ATP concentration (cell proliferation, Cell Titer Glo, 6th day of culture), 120 µg/mL PDGFRb-rSMSC in [13] of 4.12 µmol/L.

On to “APC Mouse Anti-Human CD29, Cat: 559883 (antibody)”, for which the surface antigen positive rate in experiment [17] is 99.6%; in experiment [18], 99.6%; in experiment [19] it was 99.5%; in experiment [20], 99.4%.
